Consider one molecule from PMC3460625 (PLoS Pathogens, 2012).

The assay concerns the target T1, Nup98 (endogenous) (human (endogenous in HEK 293 and HeLa), UniProt P52948 1-880).
T1 construct: also called nucleoporin Nup98
T1 sequence (looked up): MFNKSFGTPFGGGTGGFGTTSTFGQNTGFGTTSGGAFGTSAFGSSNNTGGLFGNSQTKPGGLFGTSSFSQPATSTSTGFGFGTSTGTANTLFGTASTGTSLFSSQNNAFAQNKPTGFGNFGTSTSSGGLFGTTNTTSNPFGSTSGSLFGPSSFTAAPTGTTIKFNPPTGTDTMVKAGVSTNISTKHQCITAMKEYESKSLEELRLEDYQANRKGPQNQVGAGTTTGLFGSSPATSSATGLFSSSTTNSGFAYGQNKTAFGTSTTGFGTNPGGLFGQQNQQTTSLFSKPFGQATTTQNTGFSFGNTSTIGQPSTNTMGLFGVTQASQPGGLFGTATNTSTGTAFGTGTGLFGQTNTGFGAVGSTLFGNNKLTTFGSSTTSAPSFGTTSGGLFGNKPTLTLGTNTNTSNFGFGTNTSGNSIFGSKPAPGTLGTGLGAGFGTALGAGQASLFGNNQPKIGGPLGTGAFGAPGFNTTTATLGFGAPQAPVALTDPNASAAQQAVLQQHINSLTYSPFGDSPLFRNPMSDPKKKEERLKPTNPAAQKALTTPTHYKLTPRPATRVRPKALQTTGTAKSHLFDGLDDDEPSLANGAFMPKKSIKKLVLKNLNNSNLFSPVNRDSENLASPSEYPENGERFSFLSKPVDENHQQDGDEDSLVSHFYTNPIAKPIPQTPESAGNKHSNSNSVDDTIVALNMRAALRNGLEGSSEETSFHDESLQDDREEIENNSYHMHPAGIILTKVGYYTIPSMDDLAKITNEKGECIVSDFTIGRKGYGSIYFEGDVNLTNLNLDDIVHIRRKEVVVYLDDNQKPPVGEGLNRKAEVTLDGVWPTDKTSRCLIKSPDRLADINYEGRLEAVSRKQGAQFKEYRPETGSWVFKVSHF
Kind of assay: SEC + other: sucrose gradient sedimentation. The following applies: partners not purified.

The stoichiometry N is a count of units in the complex or per binding partner.

B1: Rae1 (endogenous) (natural protein, human (endogenous in HEK 293 and HeLa), UniProt P78406 1-368, looked up)
chain: MSLFGTTSGFGTSGTSMFGSATTDNHNPMKDIEVTSSPDDSIGCLSFSPPTLPGNFLIAGSWANDVRCWEVQDSGQTIPKAQQMHTGPVLDVCWSDDGSKVFTASCDKTAKMWDLSSNQAIQIAQHDAPVKTIHWIKAPNYSCVMTGSWDKTLKFWDTRSSNPMMVLQLPERCYCADVIYPMAVVATAERGLIVYQLENQPSEFRRIESPLKHQHRCVAIFKDKQNKPTGFALGSIEGRVAIHYINPPNPAKDNFTFKCHRSNGTNTSAPQDIYAVNGIAFHPVHGTLATVGSDGRFSFWDKDARTKLKTSEQLDQPISACCFNHNGNIFAYASSYDWSKGHEFYNPQKKNYIFLRNAAEELKPRNKK
notes: also called host Rae1; cellular Rae1
Take B1: the “stoichiometry N” value was determined as 1.
